From US20120172293A1 (Takeda / Millennium, published 2012)
Non-standard residues stand in square brackets, D forms with d. *: point of attachment. tBuAla = CC(C)(C)C[C@H](N)C(=O)O; 4Pal = N[C@@H](Cc1ccncc1)C(=O)O; dHyp = O=C(O)[C@H]1C[C@H](O)CN1; Cha = N[C@@H](CC1CCCCC1)C(=O)O; Isobutyryl = CC(C)C(=O)*; Iva = CC[C@](C)(N)C(=O)O; Aib = CC(C)(N)C(=O)O

B1: Ac-[D-Pro24, Cha27,28,36, Iva30, Aib31]-PYY(23-36) (peptide)
peptide: Ac-S[dP]RH[Cha][Cha]N[Iva][Aib]TRQR[Cha]-NH2
SMILES: CC[C@](C)(NC(=O)[C@H](CC(N)=O)NC(=O)[C@H](CC1CCCCC1)NC(=O)[C@H](CC1CCCCC1)NC(=O)[C@H](Cc1c[nH]cn1)NC(=O)[C@H](CCCNC(=N)N)NC(=O)[C@H]1CCCN1C(=O)[C@H](CO)NC(C)=O)C(=O)NC(C)(C)C(=O)N[C@H](C(=O)N[C@@H](CCCNC(=N)N)C(=O)N[C@@H](CCC(N)=O)C(=O)N[C@@H](CCCNC(=N)N)C(=O)N[C@@H](CC1CCCCC1)C(N)=O)[C@@H](C)O
B2: Ac-[D-Hyp24, Cha27,36, Leu(Me)28, Lys30, Aib31]-PYY(23-36) (peptide)
peptide: Ac-S[dHyp]RH[Cha][tBuAla]NK[Aib]TRQR[Cha]-NH2
SMILES: CC(=O)N[C@@H](CO)C(=O)N1C[C@@H](O)C[C@@H]1C(=O)N[C@@H](CCCNC(=N)N)C(=O)N[C@@H](Cc1c[nH]cn1)C(=O)N[C@@H](CC1CCCCC1)C(=O)N[C@@H](CC(C)(C)C)C(=O)N[C@@H](CC(N)=O)C(=O)N[C@@H](CCCCN)C(=O)NC(C)(C)C(=O)N[C@H](C(=O)N[C@@H](CCCNC(=N)N)C(=O)N[C@@H](CCC(N)=O)C(=O)N[C@@H](CCCNC(=N)N)C(=O)N[C@@H](CC1CCCCC1)C(N)=O)[C@@H](C)O
B3: Ac-[Glu23, D-Hyp24, Cha27,28,36, Lys30, Aib31]-PYY(23-36) (peptide)
peptide: Ac-E[dHyp]RH[Cha][Cha]NK[Aib]TRQR[Cha]-NH2
SMILES: CC(=O)N[C@@H](CCC(=O)O)C(=O)N1C[C@@H](O)C[C@@H]1C(=O)N[C@@H](CCCNC(=N)N)C(=O)N[C@@H](Cc1c[nH]cn1)C(=O)N[C@@H](CC1CCCCC1)C(=O)N[C@@H](CC1CCCCC1)C(=O)N[C@@H](CC(N)=O)C(=O)N[C@@H](CCCCN)C(=O)NC(C)(C)C(=O)N[C@H](C(=O)N[C@@H](CCCNC(=N)N)C(=O)N[C@@H](CCC(N)=O)C(=O)N[C@@H](CCCNC(=N)N)C(=O)N[C@@H](CC1CCCCC1)C(N)=O)[C@@H](C)O
B4: Ac-[D-Pro24, Pya(4)26, Cha27,36, Aib28,31, Trp30]-PYY(23-36) (peptide)
peptide: Ac-S[dP]R[4Pal][Cha][Aib]NW[Aib]TRQR[Cha]-NH2
SMILES: CC(=O)N[C@@H](CO)C(=O)N1CCC[C@@H]1C(=O)N[C@@H](CCCNC(=N)N)C(=O)N[C@@H](Cc1ccncc1)C(=O)N[C@@H](CC1CCCCC1)C(=O)NC(C)(C)C(=O)N[C@@H](CC(N)=O)C(=O)N[C@@H](Cc1c[nH]c2ccccc12)C(=O)NC(C)(C)C(=O)N[C@H](C(=O)N[C@@H](CCCNC(=N)N)C(=O)N[C@@H](CCC(N)=O)C(=O)N[C@@H](CCCNC(=N)N)C(=O)N[C@@H](CC1CCCCC1)C(N)=O)[C@@H](C)O
B5: Ac-[Glu23, D-Hyp24, Pya(4)26, Cha27,36, Aib28,31, Lys30]-PYY(23-36) (peptide)
peptide: Ac-E[dHyp]R[4Pal][Cha][Aib]NK[Aib]TRQR[Cha]-NH2
SMILES: CC(=O)N[C@@H](CCC(=O)O)C(=O)N1C[C@@H](O)C[C@@H]1C(=O)N[C@@H](CCCNC(=N)N)C(=O)N[C@@H](Cc1ccncc1)C(=O)N[C@@H](CC1CCCCC1)C(=O)NC(C)(C)C(=O)N[C@@H](CC(N)=O)C(=O)N[C@@H](CCCCN)C(=O)NC(C)(C)C(=O)N[C@H](C(=O)N[C@@H](CCCNC(=N)N)C(=O)N[C@@H](CCC(N)=O)C(=O)N[C@@H](CCCNC(=N)N)C(=O)N[C@@H](CC1CCCCC1)C(N)=O)[C@@H](C)O
B6: Ac-[Glu23, D-Pro24, Pya(4)26, Cha27,36, Aib28,31, Lys30]-PYY(23-36) (peptide)
peptide: Ac-E[dP]R[4Pal][Cha][Aib]NK[Aib]TRQR[Cha]-NH2
SMILES: CC(=O)N[C@@H](CCC(=O)O)C(=O)N1CCC[C@@H]1C(=O)N[C@@H](CCCNC(=N)N)C(=O)N[C@@H](Cc1ccncc1)C(=O)N[C@@H](CC1CCCCC1)C(=O)NC(C)(C)C(=O)N[C@@H](CC(N)=O)C(=O)N[C@@H](CCCCN)C(=O)NC(C)(C)C(=O)N[C@H](C(=O)N[C@@H](CCCNC(=N)N)C(=O)N[C@@H](CCC(N)=O)C(=O)N[C@@H](CCCNC(=N)N)C(=O)N[C@@H](CC1CCCCC1)C(N)=O)[C@@H](C)O
B7: Ac-[Gln23, D-Pro24, Pya(4)26, Cha27,36, Aib28,31, Lys30]-PYY(23-36) (peptide)
peptide: Ac-Q[dP]R[4Pal][Cha][Aib]NK[Aib]TRQR[Cha]-NH2
SMILES: CC(=O)N[C@@H](CCC(N)=O)C(=O)N1CCC[C@@H]1C(=O)N[C@@H](CCCNC(=N)N)C(=O)N[C@@H](Cc1ccncc1)C(=O)N[C@@H](CC1CCCCC1)C(=O)NC(C)(C)C(=O)N[C@@H](CC(N)=O)C(=O)N[C@@H](CCCCN)C(=O)NC(C)(C)C(=O)N[C@H](C(=O)N[C@@H](CCCNC(=N)N)C(=O)N[C@@H](CCC(N)=O)C(=O)N[C@@H](CCCNC(=N)N)C(=O)N[C@@H](CC1CCCCC1)C(N)=O)[C@@H](C)O
B8: Ac-[Thr23, D-Pro24, Pya(4)26, Cha27,36, Aib28,31, Lys30]-PYY(23-36) (peptide)
peptide: Ac-T[dP]R[4Pal][Cha][Aib]NK[Aib]TRQR[Cha]-NH2
SMILES: CC(=O)N[C@H](C(=O)N1CCC[C@@H]1C(=O)N[C@@H](CCCNC(=N)N)C(=O)N[C@@H](Cc1ccncc1)C(=O)N[C@@H](CC1CCCCC1)C(=O)NC(C)(C)C(=O)N[C@@H](CC(N)=O)C(=O)N[C@@H](CCCCN)C(=O)NC(C)(C)C(=O)N[C@H](C(=O)N[C@@H](CCCNC(=N)N)C(=O)N[C@@H](CCC(N)=O)C(=O)N[C@@H](CCCNC(=N)N)C(=O)N[C@@H](CC1CCCCC1)C(N)=O)[C@@H](C)O)[C@@H](C)O
B9: Isobutanoyl-[Glu23, D-Pro24, Pya(4)26, Cha27,36, Aib28,31, Lys30]-PYY(23-36) (peptide)
peptide: Isobutyryl-E[dP]R[4Pal][Cha][Aib]NK[Aib]TRQR[Cha]-NH2
SMILES: CC(C)C(=O)N[C@@H](CCC(=O)O)C(=O)N1CCC[C@@H]1C(=O)N[C@@H](CCCNC(=N)N)C(=O)N[C@@H](Cc1ccncc1)C(=O)N[C@@H](CC1CCCCC1)C(=O)NC(C)(C)C(=O)N[C@@H](CC(N)=O)C(=O)N[C@@H](CCCCN)C(=O)NC(C)(C)C(=O)N[C@H](C(=O)N[C@@H](CCCNC(=N)N)C(=O)N[C@@H](CCC(N)=O)C(=O)N[C@@H](CCCNC(=N)N)C(=O)N[C@@H](CC1CCCCC1)C(N)=O)[C@@H](C)O

Assays:
[1] = molecular target: human Y2 receptor (human) (UniProt P49146); test: cell-based or functional assay
[2] = molecular target: human Y2 receptor (human) (UniProt P49146); test: RBA: displacement of [125I]-PYY from hY2R/CHO membranes

Sequence of human Y2 receptor (human) (P49146 whole entry): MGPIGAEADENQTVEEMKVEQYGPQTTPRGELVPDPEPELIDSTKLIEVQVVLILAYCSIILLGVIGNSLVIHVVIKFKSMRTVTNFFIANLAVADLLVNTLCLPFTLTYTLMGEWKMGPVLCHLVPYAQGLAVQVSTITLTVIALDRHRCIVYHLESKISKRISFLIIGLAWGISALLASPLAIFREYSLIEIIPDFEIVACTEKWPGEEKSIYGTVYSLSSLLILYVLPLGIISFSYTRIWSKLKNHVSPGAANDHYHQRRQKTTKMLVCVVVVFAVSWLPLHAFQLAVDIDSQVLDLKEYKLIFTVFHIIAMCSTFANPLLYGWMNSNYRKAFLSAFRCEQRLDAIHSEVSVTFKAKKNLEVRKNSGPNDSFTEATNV

| GBA EC50 Ratio ([35S]GTPγS binding) (EC50 compound/EC50 PYY(3-36)) [1] | IC50 Ratio (IC50 compound/IC50 PYY(3-36)) [2] | Molecule |
| --- | --- | --- |
| 1.4 | 0.75 | 4-Imidazolecarbonyl-[D-Hyp24, Iva25, Pya(4)26, Cha27,36, Leu(Me)28, Lys30, Aib31]-PYY(23-36) (peptide) |
| 0.7 | 0.82 | (Tetrahydro-2H-pyran-4-ylmethyl)carbamoyl-[D-Pro24, Pya(4)26, Cha27,36, Aib28,31, Lys30]-PYY(23-36) (peptide) |
| 1.9 | 0.92 | 3-Carboxypropionyl-[D-Hyp24, Iva25, Pya(4)26, Cha27,36, Leu(Me)28, Lys30, Aib31]-PYY(23-36) (peptide) |
| 1.7 | 2.9 | Ac-[D-Pro24, Pya(4)26, Nal(1)27, Aib28,31, Lys30, Cha36]-PYY(23-36) (peptide) |
| 1.6 | 0.55 | Ac-[D-Pro24, Pya(4)26, Cha27,36, Aib28, Lys30, D-Iva31]-PYY(23-36) (peptide) |
| 1.6 | 1.3 | 4-Pyridinecarbonyl-[D-Hyp24, Iva25,28, Pya(4)26, Cha27,36, Lys30, Aib31]-PYY(23-36) (peptide) |
| 0.89 | 0.79 | Isobutanoyl-[D-Pro24, Pya(4)26, Cha27,36, Aib28,31, Lys30]-PYY(23-36) (peptide) |
| 0.94 | 1.3 | (2-Carboxyethyl)carbamoyl-[D-Pro24, Pya(4)26, Cha27,36, Aib28,31, Lys30]-PYY(23-36) (peptide) |
| 1.4 | 0.88 | Ac-[D-Pro24, Tyr(Me)26, Cha27,36, Aib28,31, Lys30]-PYY(23-36) (peptide) |
| 0.98 | 1 | Ac-[D-Pro24, Pya(4)26, Cha27, Aib28,31, Lys30, Phe(2Me)36]-PYY(23-36) (peptide) |
| 0.82 | 0.82 | [(1S)-1-Carboxy-3-methylbutyl]carbamoyl-[D-Pro24, Pya(4)26, Cha27,36, Aib28,31, Lys30]-PYY(23-36) (peptide) |
| 1.1 | 3.4 | Ac-[D-Pro24, Pya(4)26, Cha27,36, D-Iva28, Lys30, Iva31]-PYY(23-36) (peptide) |
| 1.3 | 0.99 | 4-Imidazolecarbonyl-[D-Hyp24, Iva25,28, Pya(4)26, Cha27,36, Lys30, Aib31]-PYY(23-36) (peptide) |
| 1 | 0.65 | 4-Imidazolecarbonyl-[D-Hyp24, Iva25, Pya(4)26, Cha27,36, αMePhe28, Lys30, Aib31]-PYY(23-36) (peptide) |
| 0.92 | 1.3 | 4-Imidazolecarbonyl-[D-Hyp24, Iva25, Pya(4)26, Cha27,36, Aib28,31, Lys30]-PYY(23-36) (peptide) |
| 5.7 | 5.8 | Ac-[D-Pro24, Pya(4)26, Cha27,36, Aib28,31, Hse30]-PYY(23-36) (peptide) |
| 20 | 43 | B1 |
| 0.76 | 0.38 | B2 |
| 1.3 | 0.8 | B3 |
| 2.4 | 2.5 | B4 |
| 2.2 | 3.4 | B5 |
| 1.9 | 2.7 | B6 |
| 0.9 | 1.3 | B7 |
| 0.69 | 1.1 | B8 |
| 2 | 1.9 | B9 |
